The values below come from publication PMC12804832.

This data set has as its target T1, Msn2 DBD (Saccharomyces cerevisiae, UniProt P33748 643-704).
T1 sequence: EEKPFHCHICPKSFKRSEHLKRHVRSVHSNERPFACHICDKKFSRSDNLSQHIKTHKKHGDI
Nature of the data set: EMSA. On the technique in general: A gel shift assay detects complexes by their altered migration in electrophoresis.

B1: 51 bp DNA without motif (dsDNA)
DNA 1: CCTGCCACCTACACATACTTCCTACACAACCTGAGTCGTATTAATTTCGCG
DNA 2: CGCGAAATTATACGACTCAAGTTGTGTAGGAAGTATGTGTAGGTGGCGAGG
With B1, the binding result is recorded as “no binding”.
